This data set has as its system MS2 coat protein. As to the kind of experiment: apparent KD of MS2 coat protein; designed switch direction (-1 OFF switch, 1 ON switch): 1; higher = weaker reporter binding. The method, boiled down:
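Transcription of designed RNA switches on Illumina chips was done by stalled E. coli RNA polymerase. SNAP-549-labelled MS2 coat protein was then titrated in doubling steps from 0.7 or 1.5 nM to 3 µM, with steps of 0.8–1.5 h at the lowest and 10–20 min at the highest concentration. The per-design median over clusters of curve-fitted normalised fluorescence is reported as apparent KD.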

[1] abbreviates: Eterna round: R95, input ligand: FMN 200 uM.
The mark [2] stands for this setting: Eterna round: R95, input ligand: microRNA oligo, concentration not stated.
Where [3] appears, read: Eterna round: R95, input ligand: none.
Where [4] appears, read: input ligand: microRNA oligo, concentration not stated.

For the sequence “UAGUACAAGCUUUUUGCCCGUCUUAUUUAACAUGAGGAUCACCCAUGUAAGGUGAAAGUUAGAGAGUGGAGGUUGAA [JR_SHM208A_Sub049] (puzzle: Sensor for hsa-mir-208a)”, the “apparent KD of MS2 coat protein” value stood at 205 nM under setting [1], 227 nM under setting [2] and 249 nM under setting [3].
For the sequence “CCAAUGUACAAUUUAGAUCUACAUGAGGAUCACCCAUGUACAGAGGAUAUCAGCUCGAUUAGAGCUGAGAAGGCUGAAUUAAUU [SSNG3/3-A2] (Eterna round: R96, puzzle: Same State NG 3)”, the “apparent KD of MS2 coat protein” value came out at 137 nM (input ligand: FMN 200 uM), 135 nM under setting [4] and 266 nM (input ligand: none).
As to “ACAUGAGGAUCACCCAUGUAACACCUGAAAAUAAAACGAACACAGGAUAUCCCAGCAUGACGCCGGGAGAAGGGUGAUCGAAGA [Quorer] (Eterna round: R96, puzzle: Same State NG 3)”, the “apparent KD of MS2 coat protein” value (input ligand: FMN 200 uM) was 124 nM, the “apparent KD of MS2 coat protein” value under setting [4] worked out at 118 nM and the “apparent KD of MS2 coat protein” value (input ligand: none) came to 52.8 nM.
For “GCUCGCGACGCAGGAUAUGGGUGCCUGUACAUGAGGAUCACCCAUGUUAAGGGACGGAAAACGAACCAGAAGGGCGUCACGAGC [Ceusdian] (Eterna round: R96, puzzle: Same State NG 2)” the same measures were 68.1 nM, 132 nM and 1120 nM.
On to “UUUCUACAUGAGGAUCACCCAUGUCAACAAAGUCGAGGAUAUGGGCAUAUUAUCUUAUUUCCAGAAGGCGAUUUCU [salish99_ss1_r3_092] (puzzle: Same State 1)”, for which, under setting [2], the “apparent KD of MS2 coat protein” value was found to be 101 nM.
In the case of “GUGUGUUGCGGGCAGGAUAUGUAUUUGAGUACAUGAGGAUCACCCAUGUGCGCCUGUUUCAGGCGACAGAAGGGCCUAUCGCGAC [JL-ss2-3.27 ViennaUCT mod] (puzzle: Same State 2)”, under setting [2], the “apparent KD of MS2 coat protein” value amounted to 106 nM.
On to “GAGUGGCAGUUAGGAUAUAUAGUGAUAAUCACAAUAGAAGGAACUGACAUGAGGAUCACCCAUGUAGGACUAAUCCAGAGAGAG [Parity 40 - Jieux - Same State NG 1] (Eterna round: R96, puzzle: Same State NG 1)”, for which the “apparent KD of MS2 coat protein” value runs as follows: (input ligand: FMN 200 uM) 56.9 nM; under setting [4], 21.7 nM; (input ligand: none) 26.8 nM.
For “GAGAGAGGGUGAGGAUAUGCAGUAAUAAUGAUAGCAGAAGGCACAGACAUGAGGAUCACCCAUGUGGGAAUAAUCCAGAGAGAG [Parity 2 - Jieux - Same State NG 1] (Eterna round: R96, puzzle: Same State NG 1)” the same measures were 291 nM, 177 nM and 305 nM.
For “GGAGCCGGCCUAGGAUAUUUCAUAAUAUUACAUGAGGAUCACCCAUGUAGGCCAGAAGGCCUUGGGAAGAAGGAGGUCGGCUCC [Loop Effect - U26,U28,U29] (Eterna round: R96, puzzle: Same State NG 2)”, the “apparent KD of MS2 coat protein” value under setting [4] worked out at 30.7 nM.
Turning to “AGCUAUUAAUCAGGAUAUGGUCACAUGAGGAUCACCCAUGUAUAGAUGAUUGAAUGUGGUCUAAACUAGAAGGGAUUGCUAACA [SameState NG2 #57] (Eterna round: R96, puzzle: Same State NG 2)”, the “apparent KD of MS2 coat protein” value (input ligand: FMN 200 uM) turned out to be 971 nM, the “apparent KD of MS2 coat protein” value under setting [4] was found to be 232 nM and the “apparent KD of MS2 coat protein” value (input ligand: none) was determined as 745 nM.
For “UGAAUAGUUACAGGAUAUGAGUUGUAAAUUGGGUCAGAAGGGUGGGUGUUCUGCGCGGUGUGUUACAUGAGGAUCACCCAUGUU [SameState NG1 #29] (Eterna round: R96, puzzle: Same State NG 1)” the same measures were 504 nM, 182 nM and 377 nM.
For “GGUCGAAACCACAUGAGGAUCACCCAUGUUCCGGAAACGGCGCAGGAUAUCUGUCCGAAAAGGUCAGAGAAGGGUGAAACGACC [Fiskers NG3ss - 79] (Eterna round: R96, puzzle: Same State NG 3)” the same measures were 546 nM, 699 nM and 944 nM.
For “GCUAGGAUAUGACGAGGAUCACCCGUUAGAAGGAGCUUCAGCUAGGAUAUGACGAGGAUCACCCGUUAGAAGGAGCACUACUCU [pwkr ssNG3 DX 2xF5 +2xFMN.8] (Eterna round: R96, puzzle: Same State NG 3)” the same measures were 205 nM, 90.9 nM and 91.4 nM.
As for “GAAAGAGGAAGCGAGGAUAUCGUGUUGAGUACAUGAGGAUCACCCAUGUUGUAGGUAGAGGUAGGCGAGAAGGCGCAGGAGAAGA [JR_SS2_Sub0101] (puzzle: Same State 2)”, the “apparent KD of MS2 coat protein” value reads like this: under setting [1], 60 nM; under setting [2], 40.6 nM; under setting [3], 55.4 nM.
Consider “GCUCGUAUGAUGACCGACAUGAGGAUCACCCAUGUGUGUUGGUAGGAUAUCUAUAUUAAGGAUAUAGAGAAGGGCCGAACGAGC [SameState NG3 #16] (Eterna round: R96, puzzle: Same State NG 3)”, for which the “apparent KD of MS2 coat protein” value by setting is: (input ligand: FMN 200 uM) 22.4 nM; under setting [4], 23.6 nM; (input ligand: none) 30.6 nM.
For “UCUGCAAGAACAGGAUAUGGGUUCAGAGCGCGAGUGCGCUUUGACACAUGAGGAUCACCCAUGUCCCAGAAGGGUUCAAGCGGC [Cexezadi] (Eterna round: R96, puzzle: Same State NG 2)” the same measures were 30 nM, 321 nM and 385 nM.
With “AGCUAAAACGAAGGAUAUACAAACAUGAGGAUCACCCAUGUAUACAUGGUUUGUUGUGACCACAUGUAGAAGGUCGUACUAACA [SameState NG2 #18] (Eterna round: R96, puzzle: Same State NG 2)”, the “apparent KD of MS2 coat protein” value was 178 nM (input ligand: FMN 200 uM), 405 nM under setting [4] and 358 nM (input ligand: none).
As for “UGGCUCAGACGAGGAUAUAUGUCUCGAGCUUCGGCUCGAGACAUGAGGAUCACCCAUGUAAUAACAUAGAAGGUGUCUGAGCCU [SSNG2/1-C3] (Eterna round: R96, puzzle: Same State NG 2)”, the “apparent KD of MS2 coat protein” value (input ligand: FMN 200 uM) stood at 42.9 nM, the “apparent KD of MS2 coat protein” value under setting [4] came out at 226 nM and the “apparent KD of MS2 coat protein” value (input ligand: none) came out at 388 nM.
For “UGUACCUUCACAGGAUAUCAUGCGAAAAUUGCGUGAGAAGGGUGAAUACUGUGUUAAUAAAAGCACAUGAGGAUCACCCAUGUA [SameState NG1 #57] (Eterna round: R96, puzzle: Same State NG 1)” the same measures were 392 nM, 12.7 nM and 43.4 nM.
For “GCUCGAUGAGCUGUUUACAUGAGGAUCACCCAUGUAGAUGCGGAGGAUAUCUACGUGCUUUAUGUAGAGAAGGCCGUAUCGAGC [SameState NG3 #81] (Eterna round: R96, puzzle: Same State NG 3)” the same measures were 14.2 nM, 22.2 nM and 28.4 nM.
For “GGCGUAUAAACAUGAGGAUCACCCAUGUAGCGGAGACGCAAUGAGGAUAUCGAUGGGUUUCCCGUCGAGAAGGCGUGGGUCGCC [JL SSNG3 3.94] (Eterna round: R96, puzzle: Same State NG 3)” the same measures were 20.6 nM, 20.6 nM and 29 nM.
As for “CGUGAACAUGAGGAUCACCCAUGUGAAAAACGUAGAGGAUAUGUCACAUGAGUGUAAAAGACAGAAGGCUAUCGUG [Mod 2 of Round 1 starryjess' Mod pf Nando] (Eterna round: R96, puzzle: Same State 1)”, the “apparent KD of MS2 coat protein” value stood at 35.4 nM (input ligand: FMN 200 uM), 172 nM under setting [4] and 243 nM (input ligand: none).
For “CCGGUUUAUGGAGGAUAUGGAGCCUUAUUGGCUCCAGAAGGUCAAUAACAUGAGGAUCACCCAUGUCCGGCGGUCAAUAGACCG [Eli NG1ss - 69] (Eterna round: R96, puzzle: Same State NG 1)” the same measures were 120 nM, 146 nM and 349 nM.
For “GCUGCAAGGGCAGGAUAUGGGUCCAAAGCGCAAGUGCGCUUUGGUACAUGAGGAUCACCCAUGUCCCAGAAGGGCCCAUGCGGC [Edenbiatar] (Eterna round: R96, puzzle: Same State NG 2)” the same measures were 15.5 nM, 78.4 nM and 123 nM.
As to “AGUCCAGCCUGAGCUGGACAAAGGCAUGUACAUGAGGAUCACCCAUGUCAUGUACAAGCUUUUUGCUCGUCUUAAUA [Zipper 49 - 1] (Eterna round: R96, puzzle: Sensor for hsa-mir-208a)”, the “apparent KD of MS2 coat protein” value is 211 nM (input ligand: FMN 200 uM), 12.6 nM under setting [4] and 178 nM (input ligand: none).
Turning to “UUGGUGUAGAUACAGGAUAUGUUGCUCGUAACAUGAGGAUCACCCAUGUAUCUAUGAGAUUAAAUGCAGAAGGGUGCACACCACU [salish99_ss2_r3_087] (puzzle: Same State 2)”, the “apparent KD of MS2 coat protein” value runs as follows: under setting [1], 39.6 nM; under setting [2], 341 nM; under setting [3], 541 nM.
As to “UUGUUUUGUAAUUAACAUGAGGAUCACCCAUGUCUUGGCACAGAGGAUAUACAUGUUUGUUUGUAGUAGAAGGCUGUUUAUUGU [JR_SSNG3_Sub096] (Eterna round: R96, puzzle: Same State NG 3)”, the “apparent KD of MS2 coat protein” value runs as follows: (input ligand: FMN 200 uM) 128 nM; under setting [4], 116 nM; (input ligand: none) 198 nM.

The values are drawn from the supplement of paper PMC9170038.
